# Test results published in the supplement of paper PMC11246515.
# ± gives the standard deviation of the averaged measurements.
# Assay: total protein half-life in vivo (active degradation + dilution); higher = more stable protein
# [1] = wild type E. coli NCM3722, growth: C-lim chemostat, doubling time 6 h
# [2] = wild type E. coli NCM3722, growth: P-lim chemostat, doubling time 12 h
# [3] = E. coli NCM3722 delta-clpP delta-lon delta-hslV, growth: N-lim chemostat, doubling time 6 h
# [4] = E. coli NCM3722 delta-clpP, growth: N-lim chemostat, doubling time 6 h
# [5] = E. coli NCM3722 delta-hslV, growth: N-lim chemostat, doubling time 6 h
# [6] = E. coli NCM3722 delta-lon, growth: N-lim chemostat, doubling time 6 h
# [7] = wild type E. coli NCM3722, growth: C-lim chemostat, doubling time 3 h
# [8] = wild type E. coli NCM3722, growth: N-lim chemostat, doubling time 6 h
# [9] = wild type E. coli NCM3722, growth: N-lim chemostat, doubling time 12 h
# [10] = wild type E. coli NCM3722, growth: P-lim chemostat, doubling time 6 h
# [11] = E. coli NCM3722 delta-smpB, growth: N-lim chemostat, doubling time 6 h
# [12] = wild type E. coli NCM3722, growth: C-lim chemostat, doubling time 12 h
Sequence,total protein half-life in vivo [1] [h],total protein half-life in vivo [2] [h],total protein half-life in vivo [3] [h],total protein half-life in vivo [4] [h],total protein half-life in vivo [5] [h],total protein half-life in vivo [6] [h],total protein half-life in vivo [7] [h],total protein half-life in vivo [8] [h],total protein half-life in vivo [9] [h],total protein half-life in vivo [10] [h],total protein half-life in vivo [11] [h],total protein half-life in vivo [12] [h]
MDQVVIFKQIFDKVRNDLNYQWFYSELKRHNVSHYIYYLATENVHIVLKNDNTVLLKGLKNIVSVKFSKDRHLIETTSNKLKSREITFQEYRRNLAKAGVFRWVTNIHEQKRYYYTFDNSLLFTESIQKTTQILPR,4.33,5.25,–,–,–,–,–,–,–,–,–,–
MSDNAQLTGLCDRFRGFYPVVIDVETAGFNAKTDALLEIAAITLKMDEQGWLMPDTTLHFHVEPFVGANLQPEALAFNGIDPNDPDRGAVSEYEALHEIFKVVRKGIKASGCNRAIMVAHNANFDHSFMMAAAERASLKRNPFHPFATFDTAALAGLALGQTVLSKACQTAGMDFDSTQAHSALYDTERTAVLFCEIVNRWKRLGGWPLSAAEEV,5.95 ± 0.48,12 ± 0.56,5.4962 ± 0.0014,5.43 ± 0.51,5.13,6.1,2.54,5.89,8.59,5.17,–,–
MLPKAARIPHAMTLHGDTRIDNYYWLRDDTRSQPEVLDYLQQENSYGHRVMASQQALQDRILKEIIDRIPQREVSAPYIKNGYRYRHIYEPGCEYAIYQRQSAFSEEWDEWETLLDANKRAAHSEFYSMGGMAITPDNTIMALAEDFLSRRQYGIRFRNLETGNWYPELLDNVEPSFVWANDSWIFYYVRKHPVTLLPYQVWRHAIGTPASQDKLIYEEKDDTYYVSLHKTTSKHYVVIHLASATTSEVRLLDAEMADAEPFVFLPRRKDHEYSLDHYQHRFYLRSNRHGKNFGLYRTRMRDEQQWEELIPPRENIMLEGFTLFTDWLVVEERQRGLTSLRQINRKTREVIGIAFDDPAYVTWIAYNPEPETARLRYGYSSMTTPDTLFELDMDTGERRVLKQTEVPGFYAANYRSEHLWIVARDGVEVPVSLVYHRKHFRKGHNPLLVYGYGSYGASIDADFSFSRLSLLDRGFVYAIVHVRGGGELGQQWYEDGKFLKKKNTFNDYLDACDALLKLGYGSPSLCYAMGGSAGGMLMGVAINQRPELFHGVIAQVPFVDVVTTMLDESIPLTTGEFEEWGNPQDPQYYEYMKSYSPYDNVTAQAYPHLLVTTGLHDSQVQYWEPAKWVAKLRELKTDDHLLLLCTDMDSGHGGKSGRFKSYEGVAMEYAFLVALAQGTLPATPAD,5.11 ± 0.12,10.3 ± 0.86,–,3.82 ± 0.14,4.03 ± 0.38,4.8 ± 0.56,3.24 ± 0.09,4.31 ± 0.24,8.85,5.9 ± 1.3,3.5 ± 0.68,10.8 ± 3.6
MKKTLLAAGAVLALSSSFTVNAAENDKPQYLSDWWHQSVNVVGSYHTRFGPQIRNDTYLEYEAFAKKDWFDFYGYADAPVFFGGNSDAKGIWNHGSPLFMEIEPRFSIDKLTNTDLSFGPFKEWYFANNYIYDMGRNKDGRQSTWYMGLGTDIDTGLPMSLSMNVYAKYQWQNYGAANENEWDGYRFKIKYFVPITDLWGGQLSYIGFTNFDWGSDLGDDSGNAINGIKTRTNNSIASSHILALNYDHWHYSVVARYWHDGGQWNDDAELNFGNGNFNVRSTGWGGYLVVGYNF [P0A927],–,–,–,> 8,6.33 ± 0.09,> 8,–,6.53 ± 0.7,–,6.08 ± 0.99,–,14.1 ± 1
MVRKGCNSLVRAEKILTHIAWVGMASYMELLNKFQYPKSSLLNLLNVMVDCGFLIKNKNGYYSLGIKNYELGCQALHRQNIFEVTKRPMQELSLKSGLVCHLGAMESISAIYLDKIESPDSVPTSKSWIGKKLELHITALGKALLAWKTREELDYFLEALTLTPHTRNTFTDKKLFLEELQKTRLRGWAIDNEESTYGAVCLSMPVFNMYNRVNYAISLSGDPVVYSGNKIDSYLELLRKCAEQISYGLGYRNENEHLRKGN,1.6 ± 0.092,–,–,–,–,–,1.15,–,3.16,–,–,2.7 ± 0.086
MFHRLWTLIRKELQSLLREPQTRAILILPVLIQVILFPFAATLEVTNATIAIYDEDNGEHSVELTQRFARASAFTHVLLLKSPQEIRPTIDTQKALLLVRFPADFSRKLDTFQTAPLQLILDGRNSNSAQIAANYLQQIVKNYQQELLEGKPKPNNSELVVRNWYNPNLDYKWFVVPSLIAMITTIGVMIVTSLSVAREREQGTLDQLLVSPLTTWQIFIGKAVPALIVATFQATIVLAIGIWAYQIPFAGSLALFYFTMVIYGLSLVGFGLLISSLCSTQQQAFIGVFVFMMPAILLSGYVSPVENMPVWLQNLTWINPIRHFTDITKQIYLKDASLDIVWNSLWPLLVITATTGSAAYAMFRRKVM [P0AFP9],6.05 ± 0.27,–,–,6.75 ± 1.4,> 8,7.11,3.51,6.33 ± 0.16,12.1 ± 1.1,6.38,5.25 ± 0.36,12.97 ± 0.071
MKKIAITCALLSSLVASSVWADAASDLKSRLDKVSSFHASFTQKVTDGSGAAVQEGQGDLWVKRPNLFNWHMTQPDESILVSDGKTLWFYNPFVEQATATWLKDATGNTPFMLIARNQSSDWQQYNIKQNGDDFVLTPKASNGNLKQFTINVGRDGTIHQFSAVEQDDQRSSYQLKSQQNGAVDAAKFTFTPPQGVTVDDQRK,5.679 ± 0.056,12.124 ± 0.011,4.62 ± 0.5,5.76 ± 1,7.06 ± 1.3,–,3.364 ± 0.025,6.25 ± 0.41,12.5 ± 0.7,5.978 ± 0.007,–,9.08 ± 0.39
MAQGTLYIVSAPSGAGKSSLIQALLKTQPLYDTQVSVSHTTRQPRPGEVHGEHYFFVNHDEFKEMISRDAFLEHAEVFGNYYGTSREAIEQVLATGVDVFLDIDWQGAQQIRQKMPHARSIFILPPSKIELDRRLRGRGQDSEEVIAKRMAQAVAEMSHYAEYDYLIVNDDFDTALTDLKTIIRAERLRMSRQKQRHDALISKLLAD,6.12 ± 1.5,11.8 ± 0.35,4.92 ± 0.11,4.94 ± 0.094,4.492 ± 0.0085,4.85 ± 0.71,2.78 ± 0.075,5.11 ± 0.12,8.324 ± 0.018,5.66 ± 0.11,4.493 ± 0.03,8.87 ± 3.6
MGLFDKLKSLVSDDKKDTGTIEIIAPLSGEIVNIEDVPDVVFAEKIVGDGIAIKPTGNKMVAPVDGTIGKIFETNHAFSIESDSGVELFVHFGIDTVELKGEGFKRIAEEGQRVKVGDTVIEFDLPLLEEKAKSTLTPVVISNMDEIKELIKLSGSVTVGETPVIRIKK,5.34 ± 0.22,11.1 ± 0.48,5.14 ± 0.12,4.93 ± 0.37,4.53 ± 0.15,4.82 ± 0.3,3.29 ± 0.1,4.48 ± 0.28,7.87 ± 0.1,5.64 ± 0.17,4.415 ± 0.029,10.6 ± 1.7
